From patent publication US20250312473A1, “B7H3 ANTIBODY DRUG CONJUGATES” (BEONE MEDICINES I GMBH, priority 2022, published 2025)

Target: T1, ECD of human 4Ig-B7H3 (Homo sapiens, UniProt Q5ZPR3)
T1 construct: ECD of human 4Ig-B7H3 (Sinobiological, Cat: 11188-H08H); purchased Sinobiological 11188-H08H
T1 sequence (Q5ZPR3 29-466 limits assumed): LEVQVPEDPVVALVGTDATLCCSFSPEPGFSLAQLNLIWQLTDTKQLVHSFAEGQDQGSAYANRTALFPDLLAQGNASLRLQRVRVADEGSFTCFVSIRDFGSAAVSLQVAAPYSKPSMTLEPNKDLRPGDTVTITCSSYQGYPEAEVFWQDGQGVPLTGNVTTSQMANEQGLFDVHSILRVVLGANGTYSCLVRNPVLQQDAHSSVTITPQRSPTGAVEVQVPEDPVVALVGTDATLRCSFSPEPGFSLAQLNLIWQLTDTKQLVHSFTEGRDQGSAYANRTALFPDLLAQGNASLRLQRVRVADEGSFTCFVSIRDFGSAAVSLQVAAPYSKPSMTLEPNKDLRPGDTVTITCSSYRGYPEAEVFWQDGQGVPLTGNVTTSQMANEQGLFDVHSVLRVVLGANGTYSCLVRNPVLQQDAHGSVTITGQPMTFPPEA
Experiment: SPR affinity determination
Assay type: binding
Excerpt: For affinity determination, antibodies were captured by anti-human Fc surface, and used in an affinity assay based on surface plasmon resonance (SPR) technology. The results of SPR-determined binding profiles of humanized antibodies to ECD of human 4Ig-B7H3 (Sinobiological, Cat: 11188-H08H) were summarized in Table 20.

B1: BGA-4348: "1^st version of humanized antibody BGA-4348", CDR-grafted from BGA-3295, human IgG1 variant format (antibody)
heavy: QIQLVQSGAEVKKPGSSVKVSCKASGYTFTNYDINWVRQAPGQGLEWMGWIYPGDGSAYYNEKFKGRATITADKSTSTAYMELSSLRSEDTAVYYCARWGYGGVPFAYWGQGTLVTVSSASTKGPSVFPLAPSSKSTSGGTAALGCLVKDYFPEPVTVSWNSGALTSGVHTFPAVLQSSGLYSLSSVVTVPSSSLGTQTYICNVNHKPSNTKVDKKVEPKSCDKTHTCPPCPAPPAAGPSVFLFPPKPKDTLMISRTPEVTCVVVDVSHEDPEVKFNWYVDGVEVHNAKTKPREEQYNSTYRVVSVLTVLHQDWLNGKEYKCKVSNKALAAPIEKTISKAKGQPREPQVYTLPPSRDELTKNQVSLTCLVKGFYPSDIAVEWESNGQPENNYKTTPPVLDSDGSFFLYSKLTVDKSRWQQGNVFSCSVMHEALHNHYTQKSLSLSPGK
light: DIVMTQSPDSLAVSLGERATINCKSSQSLLNDINQKNYLAWYQQKPGQSPKLLVYFASTGVSGVPDRFSGSGSGTDFTLTISSLQAEDVAVYYCQQYYSFPWTFGGGTKVEIK
modifications: left off: a dimerising Fc or GST
notes: "1st version of humanized antibody BGA-4348", CDR-grafted from BGA-3295, human IgG1 variant format
koff (Test 1): 1.04e-05 s⁻¹ | kon (Test 1): 31500 M⁻¹ s⁻¹ | koff (Test 2): 0.000227 s⁻¹ | kon (Test 2): 369000 M⁻¹ s⁻¹ | Kd (read-out: dissociation constants): 0.6 nM
